Measurements taken from patent publication US20180155451A1 (published 2018).
Where a chain is given by its changes, count along the chain named. Names may count otherwise.

Legend:
FcγRIa [1] = biological target: T1, FcγRIa (human, UniProt P12314 16-292); assay: SPR (Biacore), relative binding
T1 construct: extracellular domain; also called FcgRIa; FcgRI; not shown: His tag attached to the C terminus
Text: The constructed expression vectors were each combined with GpH7-A5 and GpL16-k0 to express heterodimerized antibodies, or they were combined with GpL16-k0 alone but not with other H chains to express homodimerized antibodies. These antibodies were expressed and purified according to the method described in Reference Example 1. The resulting purified antibodies are the following: the heterodimerized antibodies GpH7-A5/GpH7-B12/GpL16-k0, GpH7-A5/GpH7-B13/GpL16-k0, GpH7-A5/GpH7-B14/GpL16-k0, and GpH7-A5/GpH7-B15/GpL16-k0; and homodimerized antibodies GpH7-B12/GpL16-k0, GpH7-B13/GpL16-k0, GpH7-B14/GpL16-k0, and GpH7-B15/GpL16-k0. The prepared antibodies were used to assess the binding activity to each FcγR by the method described in Reference Example 2.
Analysis of interaction between objective antibody and the FcγR was carried out using Biacore T100 (GE Healthcare). HBS-EP+ (GE Healthcare) was used as the running buffer, and the measurement temperature was set to 25° C. Chips produced by immobilizing the antigen peptide by the amine coupling method to a Series S Sencor Chip CM5 (GE Healthcare), or alternatively, chips produced by allowing preliminarily biotinylated antigen peptides to interact with and immobilize onto a Series S Sensor Chip SA (certified) (GE Healthcare) were used. Antibodies of interest were captured onto an antigen peptide-immobilized chip, and allowed to interact to each FcγR diluted with running buffer. To regenerate and repeatedly use the chip, the antibodies captured on the chip were washed off by reacting 10 mM glycine-HCl, pH 1.5.

FcγRIIIa = biological target: T2, FcγRIIIa (human, UniProt P08637 17-208); assay: SPR (Biacore), KD
T2 construct: extracellular domain; not shown: His tag attached to the C terminus
T2 sequence (P08637 17-208): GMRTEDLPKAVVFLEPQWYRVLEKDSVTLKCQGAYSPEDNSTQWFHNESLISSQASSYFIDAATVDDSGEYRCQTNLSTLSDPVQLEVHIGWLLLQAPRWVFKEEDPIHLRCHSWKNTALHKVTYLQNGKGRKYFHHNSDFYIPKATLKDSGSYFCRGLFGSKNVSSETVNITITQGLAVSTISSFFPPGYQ

FcγRIIIa F = biological target: T3, FcγRIIIa F (human, UniProt P08637 17-208); assay: SPR (Biacore), KD
T3 construct: extracellular domain; also called FcgRIIIa F; FcgRIIIaF; not shown: His tag attached to the C terminus
T3 sequence (P08637 17-208): as above

FcγRIIIa V = biological target: T4, FcγRIIIa V (human, UniProt P08637 17-208); assay: SPR (Biacore), KD
T4 construct: extracellular domain; also called FcgRIIIa V; FcgRIIIaV; not shown: His tag attached to the C terminus
T4 sequence (P08637 17-208 F176V limits assumed): as the sequence (P08637 17-208) above, with F160V counted along it

FcγRIa [2] = biological target: T1, FcγRIa; assay: SPR (Biacore4000), kinetic analysis
Description: The variants described above were assessed for their binding to FcγR according to the method described in Reference Example 8.
Analysis of interaction between obj ective antibody and the FcγR was carried out using Biacore T100 (GE Healthcare), Biacore T200, Biacore A100, and Biacore 4000. HBS-EP+ (GE Healthcare) was used as the running buffer, and the measurement temperature was set to 25° C. Chips produced by immobilizing the antigen peptide by the amine coupling method to a Series S sensor Chip CM5 (GE Healthcare), chips produced by allowing preliminarily biotinylated antigen peptides to interact with and immobilize onto a Series S Sensor Chip SA (certified) (GE Healthcare), chips produced by immobilizing Protein L (ACTIGEN, BioVision) to Series S Sencor Chip CM5 (GE Healthcare), or chips produced by immobilizing Protein A/G (Thermo Scientific) to Series S Sencor Chip CM5 (GE Healthcare) were used. Antibodies of interest were captured onto these chips, and allowed to interact to each FcγR diluted with running buffer. To regenerate and repeatedly use the chip, the antibodies captured onto the chip were washed off by reacting 10 mM glycine-HCl, pH 1.5.

T1 sequence (P12314 16-292): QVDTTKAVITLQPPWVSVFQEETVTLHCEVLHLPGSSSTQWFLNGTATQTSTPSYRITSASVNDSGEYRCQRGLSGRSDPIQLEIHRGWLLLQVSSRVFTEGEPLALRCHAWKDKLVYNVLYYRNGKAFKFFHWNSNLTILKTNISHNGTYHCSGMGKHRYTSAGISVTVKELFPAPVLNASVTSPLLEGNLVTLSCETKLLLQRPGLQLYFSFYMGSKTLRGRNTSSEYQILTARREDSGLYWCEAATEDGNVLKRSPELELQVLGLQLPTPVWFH

B1: GpH7-B14/GpL16-k0 (antibody, human IgG1, kappa)
heavy: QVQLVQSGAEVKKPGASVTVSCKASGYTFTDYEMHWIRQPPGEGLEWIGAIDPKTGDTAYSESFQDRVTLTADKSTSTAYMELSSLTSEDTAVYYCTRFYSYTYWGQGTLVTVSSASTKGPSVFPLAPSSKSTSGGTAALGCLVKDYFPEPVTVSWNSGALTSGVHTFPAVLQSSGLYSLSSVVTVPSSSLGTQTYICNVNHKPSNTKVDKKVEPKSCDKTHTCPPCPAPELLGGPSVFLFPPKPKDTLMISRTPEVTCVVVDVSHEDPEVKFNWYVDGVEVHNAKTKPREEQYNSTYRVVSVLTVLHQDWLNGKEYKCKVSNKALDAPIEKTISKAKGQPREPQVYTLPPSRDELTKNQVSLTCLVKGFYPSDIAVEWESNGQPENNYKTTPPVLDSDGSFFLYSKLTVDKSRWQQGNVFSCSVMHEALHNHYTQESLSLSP
light: DIVMTQSPLSLPVTPGEPASISCQASESLVHSNRNTYLHWYLQKPGQSPQLLIYKVSNRFSGVPDRFSGSGSGTDFTLKISRVEAEDVGVYYCSQNTHVPPTFGQGTKVEIERTVAAPSVFIFPPSDEQLKSGTASVVCLLNNFYPREAKVQWKVDNALQSGNSQESVTEQDSKDSTYSLSSTLTLSKADYEKHKVYACEVTHQGLSSPVTKSFNRGEC
notes: P329D in both H chains
B1 was tested. Which “binding activity relative to GpH7-A5/GpH7-B3/GpL16-k0” value (FcγRIa [1]) did it give?
The value was ≤ 0.2 fraction of GpH7-A5/GpH7-B3/GpL16-k0.

B2: GpH7-TA7/GpH7-B78/GpL16-k0 (antibody, human IgG1, kappa)
heavy 1: QVQLVQSGAEVKKPGASVTVSCKASGYTFTDYEMHWIRQPPGEGLEWIGAIDPKTGDTAYSESFQDRVTLTADKSTSTAYMELSSLTSEDTAVYYCTRFYSYTYWGQGTLVTVSSASTKGPSVFPLAPSSKSTSGGTAALGCLVKDYFPEPVTVSWNSGALTSGVHTFPAVLQSSGLYSLSSVVTVPSSSLGTQTYICNVNHKPSNTKVDKKVEPKSCDKTHTCPPCPAPEYLWGPSVFLFPPKPKDTLMISRTPEVTCVVVDVSHEDPEVKFNWYVDGVEVHNAKTKPREEQYNATYRVVSVLTVLHQDWLNGKEYKCKVSNKALPAPIEKTISKAKGQPREPQVYTLPPSRKELTKNQVSLTCLVKGFYPSDIAVEWESNGQPENNYKTTPPVLDSDGSFFLYSKLTVDKSRWQQGNVFSCSVMHEALHNRYTQKSLSLSP
heavy 2: B2 heavy 1 with Y232L, W234G, S237D, A296S, A328L, I330E, K354D, R433H, K437E
light: B1 light
notes: L234Y/G236W/S298A in one H chain, S239D/A330L/I332E in the other
Which “fold enhancement of binding against GpH7-A5/GpH7-B78/GpL16-k0” value (FcγRIIIa) does the source give for B2 here?
Its value is no less than 10 fold.

B3: GpH7-B15/GpL16-k0 (antibody, human IgG1, kappa)
heavy: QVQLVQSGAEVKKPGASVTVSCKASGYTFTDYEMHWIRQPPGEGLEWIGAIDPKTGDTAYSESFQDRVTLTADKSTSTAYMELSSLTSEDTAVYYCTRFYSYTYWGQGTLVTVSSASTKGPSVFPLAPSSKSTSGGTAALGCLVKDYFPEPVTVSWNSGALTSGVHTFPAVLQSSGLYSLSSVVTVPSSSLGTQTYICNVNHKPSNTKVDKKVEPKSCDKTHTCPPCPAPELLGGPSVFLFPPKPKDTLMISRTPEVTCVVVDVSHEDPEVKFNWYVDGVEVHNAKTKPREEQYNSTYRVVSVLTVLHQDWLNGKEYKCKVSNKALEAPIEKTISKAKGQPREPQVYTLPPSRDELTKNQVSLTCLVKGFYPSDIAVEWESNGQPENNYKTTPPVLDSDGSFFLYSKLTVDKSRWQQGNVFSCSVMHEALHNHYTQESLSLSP
light: B1 light
notes: P329E in both H chains
How did the “binding activity relative to GpH7-A5/GpH7-B3/GpL16-k0” value (FcγRIa [1]) turn out when B3 was run?
The value was ≤ 0.2 fraction of GpH7-A5/GpH7-B3/GpL16-k0.

B4: GpH7-A53/GpH7-B78/GpL16-k0 (antibody, human IgG1, kappa)
heavy 1: B2 heavy 1 with Y232L, W234G, S237D, A296S
heavy 2: B2 heavy 1 with Y232L, W234G, S237D, A296S, A328L, I330E, K354D, R433H, K437E
light: B1 light
notes: S239D in one H chain, S239D/A330L/I332E in the other
Which “fold decrease of binding activity against GpH7-A57/GpH7-B78/GpL16-k0” value (FcγRIIIa) does the source give for B4 here?
The value was 1.8 fold.

B5: H240-Kn193/H240-Hl204/L73-k0 (antibody, human IgG1, kappa)
heavy 1: QDQLVQSGAEVKKPGASVKVSCKASGFNIKDTYIQWVRQAPGQGLEWMGRIDPLRKQTKYREKFEGRVTITADTSTNTAYMELSSLRSEDTAVYYCVRSGREFDYWGQGTLVTVSSASTKGPSVFPLAPSSKSTSGGTAALGCLVKDYFPEPVTVSWNSGALTSGVHTFPAVLQSSGLYSLSSVVTVPSSSLGTQTYICNVNHKPSNTKVDKKVEPKSCDKTHTCPPCPAPEYNWGPMVFLFPPKPKDTLMISRTPEVTCVVVDVSDEDPEVKFNWYVDGVEVHNAKTKPRERQYNATYRVVSVLTVLHQDWLNGKEYKCKVSNKDLPAPIEKTISKAKGQPREPQVCTLPPSRDELTKNQVSLWCLVKGFYPSDIAVEWESNGQPENNYKTTPPVLDSDGSFFLYSKLTVDKSRWQQGNVFSCSVMHEALHNHYTQKSLSLSP
heavy 2: QDQLVQSGAEVKKPGASVKVSCKASGFNIKDTYIQWVRQAPGQGLEWMGRIDPLRKQTKYREKFEGRVTITADTSTNTAYMELSSLRSEDTAVYYCVRSGREFDYWGQGTLVTVSSASTKGPSVFPLAPSSKSTSGGTAALGCLVKDYFPEPVTVSWNSGALTSGVHTFPAVLQSSGLYSLSSVVTVPSSSLGTQTYICNVNHKPSNTKVDKKVEPKSCDKTHTCPPCPAPELLTGPSVFLFPPKPKDTLMISRTPEVTCVVVDVSHEEPEVKFNWYVDGVEVHNAKTKPREEQYNSTYRVVSVLTVLHQDWLNGKEYKCKVSNDALPKPEEETISKAKGQPREPQVYTLPPSRCELTKNQVSLSCAVKGFYPSDIAVEWESNGQPENNYKTTPPVLDSDGSFFLVSKLTVDKSRWQQGNVFSCSVMHEALHNHYTQKSLSLSP
light: DIQMTQSPSSLSASVGDRVTITCRASQDIHKYIAWYQQKPGQAPRLLIQYTSTLQPGVPSRFSGSGSGTDYTFTISSLQPEDIATYYCLQYEQLRTFGGGTKVEIKRTVAAPSVFIFPPSDEQLKSGTASVVCLLNNFYPREAKVQWKVDNALQSGNSQESVTEQDSKDSTYSLSSTLTLSKADYEKHKVYACEVTHQGLSSPVTKSFNRGEC
notes: Y235N/E294R in H240-Kn120; G236T/I332E in H240-Hl068
What does the source list for B5?
fold enhancement of binding against the variant before introduction of I332E and Y235N (FcγRIIIa F): 2 fold; fold enhancement of binding against the variant before introduction of I332E and Y235N (FcγRIIIa V): 8 fold; koff (FcγRIa [2]): < 5e-05 s⁻¹
